Reference: patent US20120045438A1 (Janssen / Centocor, published 2012)

target: T1, human IL-13 R130Q variant (R110Q of the mature chain) (human, UniProt P35225 35-146, Biotinylated on amines (NHS-LC-biotin, 4:1) in ELISA, panning and competition assays. The letters are unchanged.); assay: Ra2 binding inhibition ELISA, mAb in crude HEK293 supernatant, IL-13 binding to IL-13Ra2
T1 construct: R130Q counts from Met 1 of the signal peptide, R110Q on the mature chain; Bought from Peprotech; also called IL-13 R110Q; b-R130Q

Row | Binder | % Ra2 Binding Inhibition
1 | mAb with Lc 1A05 (Lc6 variant) and Hc2 (antibody, V domains shown, human IgG1; del = residue deleted) VH: QVTLKESGPVLVKPTETLTLTCTVSGFSLSTYGMGVGWIRQPPGKALEWLAHIWWDDVKRYNPALKSRLTISKDTSKSQVVLTMTNMDPVDTATYYCARMGSDYDVWFDYWGQGTLVTVSS VL: EIVLTQSPATLSLSPGERATLSCRASKSISKYLAWYQQKPGQAPRLLIYSGSTLQSGIPARFSGSGSGTDFTLTISSLEPEDFAVYYCQQQDGPYTFGQGTKLEIK | 82.7%
2 | mAb with Lc 1B01 (Lc6 variant) and Hc2 (antibody, V domains shown, human IgG1) VH: QVTLKESGPVLVKPTETLTLTCTVSGFSLSTYGMGVGWIRQPPGKALEWLAHIWWDDVKRYNPALKSRLTISKDTSKSQVVLTMTNMDPVDTATYYCARMGSDYDVWFDYWGQGTLVTVSS VL: EIVLTQSPATLSLSPGERATLSCRASKSISKYLAWYQQKPGQAPRLLIYSGSTLQSGIPARFSGSGSGTDFTLTISSLEPEDFAVYYCQQHSWGPYTFGQGTKLEIK | 77.6%
3 | mAb with Lc 1C02 (Lc6 variant) and Hc2 (antibody, V domains shown, human IgG1) VH: QVTLKESGPVLVKPTETLTLTCTVSGFSLSTYGMGVGWIRQPPGKALEWLAHIWWDDVKRYNPALKSRLTISKDTSKSQVVLTMTNMDPVDTATYYCARMGSDYDVWFDYWGQGTLVTVSS VL: EIVLTQSPATLSLSPGERATLSCRASKSISKYLAWYQQKPGQAPRLLIYSGSTLQSGIPARFSGSGSGTDFTLTISSLEPEDFAVYYCQQHVWGPYTFGQGTKLEIK | 68.4%
4 | mAb with Lc 1E03 (Lc6 variant) and Hc2 (antibody, V domains shown, human IgG1) VH: QVTLKESGPVLVKPTETLTLTCTVSGFSLSTYGMGVGWIRQPPGKALEWLAHIWWDDVKRYNPALKSRLTISKDTSKSQVVLTMTNMDPVDTATYYCARMGSDYDVWFDYWGQGTLVTVSS VL: EIVLTQSPATLSLSPGERATLSCRASKSISKYLAWYQQKPGQAPRLLIYSGSTLQSGIPARFSGSGSGTDFTLTISSLEPEDFAVYYCQQHLLGPYTFGQGTKLEIK | 61.5%
5 | mAb with Lc 1F03 (Lc6 variant, Table 8) and Hc2 (antibody, V domains shown, human IgG1) VH: QVTLKESGPVLVKPTETLTLTCTVSGFSLSTYGMGVGWIRQPPGKALEWLAHIWWDDVKRYNPALKSRLTISKDTSKSQVVLTMTNMDPVDTATYYCARMGSDYDVWFDYWGQGTLVTVSS VL: EIVLTQSPATLSLSPGERATLSCRASKSISKYLAWYQQKPGQAPRLLIYSGSTLQSGIPARFSGSGSGTDFTLTISSLEPEDFAVYYCQQHDRDPYTFGQGTKLEIK | 57.6%
6 | mAb with Lc 1G02 (Lc6 variant, Table 8) and Hc2 (antibody, V domains shown, human IgG1) VH: QVTLKESGPVLVKPTETLTLTCTVSGFSLSTYGMGVGWIRQPPGKALEWLAHIWWDDVKRYNPALKSRLTISKDTSKSQVVLTMTNMDPVDTATYYCARMGSDYDVWFDYWGQGTLVTVSS VL: EIVLTQSPATLSLSPGERATLSCRASKSISKYLAWYQQKPGQAPRLLIYSGSTLQSGIPARFSGSGSGTDFTLTISSLEPEDFAVYYCQQHSWAPYTFGQGTKLEIK | 55.2%

target: T1, human IL-13 R130Q variant (R110Q of the …); assay: single-point (10 nM) phage Fab ELISA on biotinylated IL-13 R130Q

Row | Binder | % of Lc16Hc7
7 | Phage # 86 Fab (IL-13-142 library) (Fab, V domains shown, Fab on phage pIX) VH: QVTLKESGPVLVKPTETLTLTCTVSGFSLSTYGMGVGWIRQPPGKALEWLAHIWWDDVKRYNPALKSRLTISKDTSKSQVVLTMTNMDPVDTATYYCARMGSDYDVWFDYWGQGTLVTVSS VL: DIQMTQSPSTLSASVGDRVTITCRASKSISKYLAWYQQKPGKAPKLLIYSGSTLQSGVPSRFSGSGSGTEFTLTISSLQPDDFATYYCQQHDTGPYTFGGGTKVEIK | 334%
8 | Phage # 87 Fab (IL-13-142 library) (Fab, V domains shown, Fab on phage pIX) VH: QVTLKESGPVLVKPTETLTLTCTVSGFSLSTYGMGVGWIRQPPGKALEWLAHIWWDDVKRYNPALKSRLTISKDTSKSQVVLTMTNMDPVDTATYYCARMGSDYDVWFDYWGQGTLVTVSS VL: DIQMTQSPSTLSASVGDRVTITCRASKSISKYLAWYQQKPGKAPKLLIYSGSTLQSGVPSRFSGSGSGTEFTLTISSLQPDDFATYYCQQHSLGPYTFGGGTKVEIK | 125%
9 | Phage # 88 Fab (IL-13-142 library) (Fab, V domains shown, Fab on phage pIX) VH: QVTLKESGPVLVKPTETLTLTCTVSGFSLSTYGMGVGWIRQPPGKALEWLAHIWWDDVKRYNPALKSRLTISKDTSKSQVVLTMTNMDPVDTATYYCARMGSDYDVWFDYWGQGTLVTVSS VL: DIQMTQSPSTLSASVGDRVTITCRASKSISKYLAWYQQKPGKAPKLLIYSGSTLQSGVPSRFSGSGSGTEFTLTISSLQPDDFATYYCQQHFWGPYTFGGGTKVEIK | 193%
10 | Phage # 93 Fab (IL-13-142 library) (Fab, V domains shown, Fab on phage pIX) VH: QVTLKESGPVLVKPTETLTLTCTVSGFSLSTYGMGVGWIRQPPGKALEWLAHIWWDDVKRYNPALKSRLTISKDTSKSQVVLTMTNMDPVDTATYYCARMGSDYDVWFDYWGQGTLVTVSS VL: DIQMTQSPSTLSASVGDRVTITCRASKSISKYLAWYQQKPGKAPKLLIYSGSTLQSGVPSRFSGSGSGTEFTLTISSLQPDDFATYYCQQHESGPYTFGGGTKVEIK | 223%
11 | Phage # 94 Fab (IL-13-142 library) (Fab, V domains shown, Fab on phage pIX) VH: QVTLKESGPVLVKPTETLTLTCTVSGFSLSTYGMGVGWIRQPPGKALEWLAHIWWDDVKRYNPALKSRLTISKDTSKSQVVLTMTNMDPVDTATYYCARMGSDYDVWFDYWGQGTLVTVSS VL: DIQMTQSPSTLSASVGDRVTITCRASKSISKYLAWYQQKPGKAPKLLIYSGSTLQSGVPSRFSGSGSGTEFTLTISSLQPDDFATYYCQQHDLGPYTFGGGTKVEIK | 272%
12 | Phage # 62 Fab (IL-13-142 library) (Fab, V domains shown, Fab on phage pIX; del = residue deleted) VH: QVTLKESGPVLVKPTETLTLTCTVSGFSLSTYGMGVGWIRQPPGKALEWLAHIWWDDVKRYNPALKSRLTISKDTSKSQVVLTMTNMDPVDTATYYCARMGSDYDVWFDYWGQGTLVTVSS VL: DIQMTQSPSTLSASVGDRVTITCRASKSISKYLAWYQQKPGKAPKLLIYSGSTLQSGVPSRFSGSGSGTEFTLTISSLQPDDFATYYCQQQDSPYTFGGGTKVEIK | 185%
13 | Phage # 68 Fab (IL-13-142 library) (Fab, V domains shown, Fab on phage pIX; del = residue deleted) VH: QVTLKESGPVLVKPTETLTLTCTVSGFSLSTYGMGVGWIRQPPGKALEWLAHIWWDDVKRYNPALKSRLTISKDTSKSQVVLTMTNMDPVDTATYYCARMGSDYDVWFDYWGQGTLVTVSS VL: DIQMTQSPSTLSASVGDRVTITCRASKSISKYLAWYQQKPGKAPKLLIYSGSTLQSGVPSRFSGSGSGTEFTLTISSLQPDDFATYYCQQHDFPYTFGGGTKVEIK | 398%
14 | Phage # 80 Fab (IL-13-142 library) (Fab, V domains shown, Fab on phage pIX; del = residue deleted) VH: QVTLKESGPVLVKPTETLTLTCTVSGFSLSTYGMGVGWIRQPPGKALEWLAHIWWDDVKRYNPALKSRLTISKDTSKSQVVLTMTNMDPVDTATYYCARMGSDYDVWFDYWGQGTLVTVSS VL: DIQMTQSPSTLSASVGDRVTITCRASKSISKYLAWYQQKPGKAPKLLIYSGSTLQSGVPSRFSGSGSGTEFTLTISSLQPDDFATYYCQQQDYPYTFGGGTKVEIK | 163%
15 | Phage # 48 Fab (IL-13-142 library) (Fab, V domains shown, Fab on phage pIX) VH: QVTLKESGPVLVKPTETLTLTCTVSGFSLSTYGMGVGWIRQPPGKALEWLAHIWWDDVKRYNPALKSRLTISKDTSKSQVVLTMTNMDPVDTATYYCARMGSDYDVWFDYWGQGTLVTVSS VL: DIQMTQSPSTLSASVGDRVTITCRASKSISKYLAWYQQKPGKAPKLLIYSGSTLQSGVPSRFSGSGSGTEFTLTISSLQPDDFATYYCQQHDWGPYTFGGGTKVEIK | 180%
16 | Phage # 33 Fab (IL-13-142 library) (Fab, V domains shown, Fab on phage pIX) VH: QVTLKESGPVLVKPTETLTLTCTVSGFSLSTYGMGVGWIRQPPGKALEWLAHIWWDDVKRYNPALKSRLTISKDTSKSQVVLTMTNMDPVDTATYYCARMGSDYDVWFDYWGQGTLVTVSS VL: DIQMTQSPSTLSASVGDRVTITCRASKSISKYLAWYQQKPGKAPKLLIYSGSTLQSGVPSRFSGSGSGTEFTLTISSLQPDDFATYYCQQHDWGPYTFGGGTKVEIK | 124%
